Data reported in article PMC11134965.

Key:
[1] = biological target: chicken nesfatin-1 (chicken (Gallus gallus)); assay: AUC; sedimentation velocity, 20 °C, 50,000 rpm, buffer B1 (20 mM Tris-HCl pH 7.5, 150 mM NaCl) with 500 µM ZnCl2; gN1 at 0.7, 1.0, 1.3 mg/ml; c(s) model
[2] = biological target: chicken nesfatin-1 (chicken (Gallus gallus)); assay: AUC; sedimentation velocity, 20 °C, 50,000 rpm, buffer B1 (20 mM Tris-HCl pH 7.5, 150 mM NaCl) with 50 µM Zn(II); gN1/2 at 0.92, 1.32, 1.85 mg/ml, gN1 (Table S1); c(s) model
[3] = biological target: chicken nesfatin-1/2 (nesfatin-1 and nesfatin-2 conjoined in a head-to-tail manner) (chicken (Gallus gallus)); assay: as above

relative abundance of the second sedimenting species (2.59 S) at 1.0 mg/ml, 500 µM Zn(II) [1] | relative abundance of the second sedimenting species (2.60 S) at 0.7 mg/ml, 500 µM Zn(II) [1] | relative abundance of the second sedimenting species (2.63 S) at 1.3 mg/ml, 500 µM Zn(II) [1] | stoichiometry N [1] | relative abundance of the second sedimenting species (2.16 S), 50 µM Zn(II) [2] | relative abundance of the second sedimenting species (3.43 S) at 1.85 mg/ml, 50 µM Zn(II) [3] | relative abundance of the second sedimenting species (3.49 S) at 0.92 mg/ml, 50 µM Zn(II) [3] | relative abundance of the second sedimenting species (3.64 S) at 1.32 mg/ml, 50 µM Zn(II) [3] | stoichiometry N [3] | Substance
51% | 44% | 51% | 2 | 17% | – | – | – | – | chicken nesfatin-1 (peptide)
– | – | – | – | – | 13% | 13% | 15% | 2 | chicken nesfatin-1/2 (nesfatin-1 and nesfatin-2 conjoined in a head-to-tail manner) (domain or fragment)
